Test results: patent publication US20120172295A1 (INDIANA UNIVERSITY RESEARCH AND TECHNOLOGY, published 2012)
Like-named read-outs stand apart in the source and are kept apart here. Starred links: 1 amine or outer side, 2 acyl side, 3 side chain; linkers in the order of their positions; H or OH if unused. Positions of bridges follow the written chain, without caps; N, C: chain ends. Non-standard residues stand in square brackets, D forms with d. Groups on a side chain read outwards from the residue. No end group written: not given here. *: point of attachment. γGlu = O=C(O)[C@H](CCC(=O)[*:2])N[*:1]; Palmitoyl = CCCCCCCCCCCCCCCC(=O)*; Myristoyl = CCCCCCCCCCCCCC(=O)*; Aib = CC(C)(N)C(=O)O

T1: GIP receptor (UniProt P48546 22-466)
T1 sequence (looked up): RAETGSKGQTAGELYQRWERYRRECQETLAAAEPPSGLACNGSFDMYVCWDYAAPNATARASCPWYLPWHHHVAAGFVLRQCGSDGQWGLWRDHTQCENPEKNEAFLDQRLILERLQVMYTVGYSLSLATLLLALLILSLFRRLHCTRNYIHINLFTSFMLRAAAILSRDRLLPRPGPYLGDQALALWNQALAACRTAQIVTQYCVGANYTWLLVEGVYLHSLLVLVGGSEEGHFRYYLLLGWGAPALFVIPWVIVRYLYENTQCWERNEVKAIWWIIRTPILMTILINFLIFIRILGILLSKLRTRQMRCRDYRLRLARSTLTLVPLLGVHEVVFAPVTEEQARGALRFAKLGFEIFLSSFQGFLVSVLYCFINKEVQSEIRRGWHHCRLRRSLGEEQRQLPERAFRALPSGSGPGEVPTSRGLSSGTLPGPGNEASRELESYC

B1: Peptide 900 (peptide)
peptide: H[Aib]QGTFTSDYSKYLD[Aib]RRAQDFVQWLMNTGPSSGAPPPSK([γGlu-γGlu-Palmitoyl])-NH2
modifications: N-terminus assumed
SMILES: CCCCCCCCCCCCCCCC(=O)N[C@@H](CCC(=O)N[C@@H](CCC(=O)NCCCC[C@H](NC(=O)[C@H](CO)NC(=O)[C@@H]1CCCN1C(=O)[C@@H]1CCCN1C(=O)[C@@H]1CCCN1C(=O)[C@H](C)NC(=O)CNC(=O)[C@H](CO)NC(=O)[C@H](CO)NC(=O)[C@@H]1CCCN1C(=O)CNC(=O)[C@@H](NC(=O)[C@H](CC(N)=O)NC(=O)[C@H](CCSC)NC(=O)[C@H](CC(C)C)NC(=O)[C@H](Cc1c[nH]c2ccccc12)NC(=O)[C@H](CCC(N)=O)NC(=O)[C@@H](NC(=O)[C@H](Cc1ccccc1)NC(=O)[C@H](CC(=O)O)NC(=O)[C@H](CCC(N)=O)NC(=O)[C@H](C)NC(=O)[C@H](CCCNC(=N)N)NC(=O)[C@H](CCCNC(=N)N)NC(=O)C(C)(C)NC(=O)[C@H](CC(=O)O)NC(=O)[C@H](CC(C)C)NC(=O)[C@H](Cc1ccc(O)cc1)NC(=O)[C@H](CCCCN)NC(=O)[C@H](CO)NC(=O)[C@H](Cc1ccc(O)cc1)NC(=O)[C@H](CC(=O)O)NC(=O)[C@H](CO)NC(=O)[C@@H](NC(=O)[C@H](Cc1ccccc1)NC(=O)[C@@H](NC(=O)CNC(=O)[C@H](CCC(N)=O)NC(=O)C(C)(C)NC(=O)[C@@H](N)Cc1c[nH]cn1)[C@@H](C)O)[C@@H](C)O)C(C)C)[C@@H](C)O)C(N)=O)C(=O)O)C(=O)O
B2: mt-348 (peptide)
peptide: H[Aib]QGTFTSDYSKYLD[Aib]QAAKEFICWLMNGGPSSGAPPPSK-NH2
modifications: N-terminus assumed
SMILES: CC[C@H](C)[C@H](NC(=O)[C@H](Cc1ccccc1)NC(=O)[C@H](CCC(=O)O)NC(=O)[C@H](CCCCN)NC(=O)[C@H](C)NC(=O)[C@H](C)NC(=O)[C@H](CCC(N)=O)NC(=O)C(C)(C)NC(=O)[C@H](CC(=O)O)NC(=O)[C@H](CC(C)C)NC(=O)[C@H](Cc1ccc(O)cc1)NC(=O)[C@H](CCCCN)NC(=O)[C@H](CO)NC(=O)[C@H](Cc1ccc(O)cc1)NC(=O)[C@H](CC(=O)O)NC(=O)[C@H](CO)NC(=O)[C@@H](NC(=O)[C@H](Cc1ccccc1)NC(=O)[C@@H](NC(=O)CNC(=O)[C@H](CCC(N)=O)NC(=O)C(C)(C)NC(=O)[C@@H](N)Cc1c[nH]cn1)[C@@H](C)O)[C@@H](C)O)C(=O)N[C@@H](CS)C(=O)N[C@@H](Cc1c[nH]c2ccccc12)C(=O)N[C@@H](CC(C)C)C(=O)N[C@@H](CCSC)C(=O)N[C@@H](CC(N)=O)C(=O)NCC(=O)NCC(=O)N1CCC[C@H]1C(=O)N[C@@H](CO)C(=O)N[C@@H](CO)C(=O)NCC(=O)N[C@@H](C)C(=O)N1CCC[C@H]1C(=O)N1CCC[C@H]1C(=O)N1CCC[C@H]1C(=O)N[C@@H](CO)C(=O)N[C@@H](CCCCN)C(N)=O
B3: Peptide 901 (peptide)
peptide: H[Aib]QGTFTSDK([γGlu-γGlu-Palmitoyl])SKYLD[Aib]RRAQDFVQWLMNTGPSSGAPPPS-NH2
modifications: N-terminus assumed
SMILES: CCCCCCCCCCCCCCCC(=O)N[C@@H](CCC(=O)N[C@@H](CCC(=O)NCCCC[C@H](NC(=O)[C@H](CC(=O)O)NC(=O)[C@H](CO)NC(=O)[C@@H](NC(=O)[C@H](Cc1ccccc1)NC(=O)[C@@H](NC(=O)CNC(=O)[C@H](CCC(N)=O)NC(=O)C(C)(C)NC(=O)[C@@H](N)Cc1c[nH]cn1)[C@@H](C)O)[C@@H](C)O)C(=O)N[C@@H](CO)C(=O)N[C@@H](CCCCN)C(=O)N[C@@H](Cc1ccc(O)cc1)C(=O)N[C@@H](CC(C)C)C(=O)N[C@@H](CC(=O)O)C(=O)NC(C)(C)C(=O)N[C@@H](CCCNC(=N)N)C(=O)N[C@@H](CCCNC(=N)N)C(=O)N[C@@H](C)C(=O)N[C@@H](CCC(N)=O)C(=O)N[C@@H](CC(=O)O)C(=O)N[C@@H](Cc1ccccc1)C(=O)N[C@H](C(=O)N[C@@H](CCC(N)=O)C(=O)N[C@@H](Cc1c[nH]c2ccccc12)C(=O)N[C@@H](CC(C)C)C(=O)N[C@@H](CCSC)C(=O)N[C@@H](CC(N)=O)C(=O)N[C@H](C(=O)NCC(=O)N1CCC[C@H]1C(=O)N[C@@H](CO)C(=O)N[C@@H](CO)C(=O)NCC(=O)N[C@@H](C)C(=O)N1CCC[C@H]1C(=O)N1CCC[C@H]1C(=O)N1CCC[C@H]1C(=O)N[C@@H](CO)C(N)=O)[C@@H](C)O)C(C)C)C(=O)O)C(=O)O
B4: mt-347 (peptide)
peptide: H[Aib]QGTFTSDYSKYLD[Aib]QAAKEFICWLMNGGPSSGAPPPSK(Myristoyl)-NH2
modifications: N-terminus assumed
SMILES: CCCCCCCCCCCCCC(=O)NCCCC[C@H](NC(=O)[C@H](CO)NC(=O)[C@@H]1CCCN1C(=O)[C@@H]1CCCN1C(=O)[C@@H]1CCCN1C(=O)[C@H](C)NC(=O)CNC(=O)[C@H](CO)NC(=O)[C@H](CO)NC(=O)[C@@H]1CCCN1C(=O)CNC(=O)CNC(=O)[C@H](CC(N)=O)NC(=O)[C@H](CCSC)NC(=O)[C@H](CC(C)C)NC(=O)[C@H](Cc1c[nH]c2ccccc12)NC(=O)[C@H](CS)NC(=O)[C@@H](NC(=O)[C@H](Cc1ccccc1)NC(=O)[C@H](CCC(=O)O)NC(=O)[C@H](CCCCN)NC(=O)[C@H](C)NC(=O)[C@H](C)NC(=O)[C@H](CCC(N)=O)NC(=O)C(C)(C)NC(=O)[C@H](CC(=O)O)NC(=O)[C@H](CC(C)C)NC(=O)[C@H](Cc1ccc(O)cc1)NC(=O)[C@H](CCCCN)NC(=O)[C@H](CO)NC(=O)[C@H](Cc1ccc(O)cc1)NC(=O)[C@H](CC(=O)O)NC(=O)[C@H](CO)NC(=O)[C@@H](NC(=O)[C@H](Cc1ccccc1)NC(=O)[C@@H](NC(=O)CNC(=O)[C@H](CCC(N)=O)NC(=O)C(C)(C)NC(=O)[C@@H](N)Cc1c[nH]cn1)[C@@H](C)O)[C@@H](C)O)[C@@H](C)CC)C(N)=O
B5: E16K20 Gluc-NH2 Lac (peptide)
peptide: HSQGTFTSDYSKYLDERRAKDFVQWLMNT-NH2
modifications: lactam 16-20; N-terminus assumed
SMILES: CSCC[C@H](NC(=O)[C@H](CC(C)C)NC(=O)[C@H](Cc1c[nH]c2ccccc12)NC(=O)[C@H](CCC(N)=O)NC(=O)[C@@H](NC(=O)[C@H](Cc1ccccc1)NC(=O)[C@H](CC(=O)O)NC(=O)[C@@H]1CCCCNC(=O)CC[C@H](NC(=O)[C@H](CC(=O)O)NC(=O)[C@H](CC(C)C)NC(=O)[C@H](Cc2ccc(O)cc2)NC(=O)[C@H](CCCCN)NC(=O)[C@H](CO)NC(=O)[C@H](Cc2ccc(O)cc2)NC(=O)[C@H](CC(=O)O)NC(=O)[C@H](CO)NC(=O)[C@@H](NC(=O)[C@H](Cc2ccccc2)NC(=O)[C@@H](NC(=O)CNC(=O)[C@H](CCC(N)=O)NC(=O)[C@H](CO)NC(=O)[C@@H](N)Cc2c[nH]cn2)[C@@H](C)O)[C@@H](C)O)C(=O)N[C@@H](CCCNC(=N)N)C(=O)N[C@@H](CCCNC(=N)N)C(=O)N[C@@H](C)C(=O)N1)C(C)C)C(=O)N[C@@H](CC(N)=O)C(=O)N[C@H](C(N)=O)[C@@H](C)O

What was measured:
Assay in all cases: cell-based or functional assay
glucagon receptor [1] = target: T2, glucagon receptor (UniProt P47871 26-477, limits assumed)
T2 sequence (P47871 26-477 limits assumed): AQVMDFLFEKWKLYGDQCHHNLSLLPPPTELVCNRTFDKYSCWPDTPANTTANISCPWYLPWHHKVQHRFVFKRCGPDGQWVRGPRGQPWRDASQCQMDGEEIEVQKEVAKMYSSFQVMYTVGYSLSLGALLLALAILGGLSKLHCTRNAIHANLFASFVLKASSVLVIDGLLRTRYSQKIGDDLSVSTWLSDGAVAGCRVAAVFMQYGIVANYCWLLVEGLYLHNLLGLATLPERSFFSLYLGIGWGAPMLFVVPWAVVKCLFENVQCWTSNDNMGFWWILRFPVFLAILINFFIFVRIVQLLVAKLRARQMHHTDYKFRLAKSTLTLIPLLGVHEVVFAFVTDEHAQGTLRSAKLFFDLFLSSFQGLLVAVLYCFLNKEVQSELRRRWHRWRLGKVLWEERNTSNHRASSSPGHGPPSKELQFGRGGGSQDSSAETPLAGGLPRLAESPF

GLP-1 receptor [2] = target: T3, GLP-1 receptor (UniProt P43220 24-463, limits assumed)
GIP receptor [3] = target: T1, GIP receptor
glucagon receptor [4] = target: T2, glucagon receptor; remark: listed apart in the source
glucagon receptor [5] = target: T2, glucagon receptor; remark: listed apart in the source
GLP-1 receptor [6] = target: T3, GLP-1 receptor; remark: listed apart in the source
GIP receptor [7] = target: T1, GIP receptor; remark: listed apart in the source
glucagon receptor [8] = target: T2, glucagon receptor; remark: listed apart in the source
GLP-1 receptor [9] = target: T3, GLP-1 receptor; remark: listed apart in the source
GIP receptor [10] = target: T1, GIP receptor; remark: listed apart in the source
glucagon receptor [11] = target: T2, glucagon receptor; remark: listed apart in the source
GLP-1 receptor [12] = target: T3, GLP-1 receptor; remark: listed apart in the source
glucagon receptor [13] = target: T2, glucagon receptor; remark: listed apart in the source

Binder	% Relative activity (glucagon receptor [5]) [%]	EC50 (glucagon receptor [5]) [nM]	% Relative activity (GLP-1 receptor [6]) [%]	% Relative activity (GIP receptor [7]) [%]	% Relative activity (glucagon receptor [8]) [%]	% Relative activity (GLP-1 receptor [9]) [%]	% Relative activity (GIP receptor [10]) [%]	other results
B1								% Relative activity (glucagon receptor [1]): 560%; % Relative activity (GLP-1 receptor [2]): 383%; % Relative activity (GIP receptor [3]): 2.89%
HSQGTFTSDYSKYLDSRRAQDFVQWLMNTGPSSGAPPPS (C-terminal amide) [Glucagon-Cex]								cAMP induction EC50 (glucagon receptor [4]): 0.25 nM
B2	8.16	0.433	149	0.15	8.2	149	0.2	EC50 (GLP-1 receptor [6]): 0.0037 nM; EC50 (GIP receptor [7]): 1.76 nM
B3								% Relative activity (glucagon receptor [1]): 560%; % Relative activity (GLP-1 receptor [2]): 460%; % Relative activity (GIP receptor [3]): 8.65%
B4	111	0.0317	67.1	0.7	111	67	0.7	EC50 (GLP-1 receptor [6]): 0.0082 nM; EC50 (GIP receptor [7]): 0.383 nM
B5								Percent Potency Relative to Native Ligand (glucagon receptor [11]): 181%; Percent Potency Relative to Native Ligand (GLP-1 receptor [12]): 63%
HXQGTFTSDYSKYLDEQAAKEFICWLMNGGPSSGAPPPSK (AIB at 2; Lys 40 acylated with a C14 fatty acyl group) [mt-345]	193	0.0183	153	4.99	193	153	5	
Y[Aib]EGTFTSDYSIYLDKQAA[Aib]EFVNWLLAGGPSSGAPPPSK(Palmitoyl) [mt-261]					13.4			% Relative activity (glucagon receptor [13]): 31.6%
